Our source for the MFI, Fold increase over wildtype PD-L2 IgV-Fc, MLR IFN gamma and IFN gamma levels pg/mL, MLR values is US20200040059A1.

The target of assay [1] is T1, human CD226, full length, expressed on transfected cells (human) (UniProt Q15762).
T1 sequence: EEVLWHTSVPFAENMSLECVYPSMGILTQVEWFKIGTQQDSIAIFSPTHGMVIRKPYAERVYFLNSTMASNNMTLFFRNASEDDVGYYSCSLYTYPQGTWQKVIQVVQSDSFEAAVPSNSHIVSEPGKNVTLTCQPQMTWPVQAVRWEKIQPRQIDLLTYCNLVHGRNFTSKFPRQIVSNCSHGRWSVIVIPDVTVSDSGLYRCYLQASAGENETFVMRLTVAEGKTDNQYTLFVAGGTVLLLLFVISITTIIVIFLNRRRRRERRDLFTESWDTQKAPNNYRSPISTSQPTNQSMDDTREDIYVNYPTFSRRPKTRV
The experiment in a line: flow cytometry on transfected cells. In general terms: A flow cytometer gives signals particle by particle.

In assay [2] the target is CD96, expressed on transfected cells (UniProt P40200). The experiment in a line: flow cytometry on transfected cells.
Assay [3] concerns the target CD112R, expressed on transfected cells (human) (UniProt Q6DKI7). The experiment in a line: flow cytometry on transfected cells.
In the next assay the target is PD-1 (human). The experiment in a line: cell-based or functional assay.

CD112R, expressed on transfected cells (human), sequence (Q6DKI7 whole entry): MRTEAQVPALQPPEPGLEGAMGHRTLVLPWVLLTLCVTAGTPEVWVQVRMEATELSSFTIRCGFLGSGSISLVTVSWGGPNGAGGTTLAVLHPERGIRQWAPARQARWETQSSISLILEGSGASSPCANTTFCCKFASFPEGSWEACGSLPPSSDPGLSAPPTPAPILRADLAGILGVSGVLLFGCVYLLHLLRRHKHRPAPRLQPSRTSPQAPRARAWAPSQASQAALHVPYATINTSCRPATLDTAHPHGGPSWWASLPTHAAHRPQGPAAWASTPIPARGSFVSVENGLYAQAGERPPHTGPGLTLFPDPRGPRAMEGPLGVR

As for “CD155 variant G111R IgV-Fc (from UniProt P15151 24-139) (Fc fusion)”, the MFI at 100 nM was determined as 2790 in assay [1], 3320 in assay [2] and 2470 in assay [3].
The corresponding values for “CD155 variant Q62F, L104E, G111R IgV-Fc (from UniProt P15151 24-139) (Fc fusion)” are 2040, 1520 and 1700.
For “CD155 variant S42A IgV-Fc (from UniProt P15151 24-139) (Fc fusion)”, the MFI at 100 nM in assay [1] came to 2190; in assay [2], 1620; in assay [3], 1730.
On to “CD155 variant S42A, L104Q, G111R IgV-Fc (from UniProt P15151 24-139) (Fc fusion)”, for which the figures for the MFI at 100 nM in assay [1], in assay [2] and in assay [3] were 1900, 1700 and 1820, respectively.
In the case of “CD155 variant S42A, S52Q, L104Q, G111R IgV-Fc (from UniProt P15151 24-139) (Fc fusion)”, the MFI at 100 nM was 2160 in assay [1], 1640 in assay [2] and 1890 in assay [3].
As for “CD155 variant S42C IgV-Fc (from UniProt P15151 24-139) (Fc fusion)”, the results for the MFI at 100 nM in assay [1], in assay [2] and in assay [3] were 2100, 1590 and 1680, respectively.
On to “CD155 variant S42C, S52L IgV-Fc (from UniProt P15151 24-139) (Fc fusion)”, for which the results for the MFI at 100 nM in assay [1], in assay [2] and in assay [3] were 2150, 1480 and 1660, respectively.
As to “CD155 variant S42C, S52M, Q62F IgV-Fc (from UniProt P15151 24-139) (Fc fusion)”, the MFI at 100 nM in assay [1] amounted to 2080; in assay [2], 1480; in assay [3], 1590.
As to “CD155 variant S42G, S52L, Q62F, L104Q IgV-Fc (from UniProt P15151 24-139) (Fc fusion)”, the figures for the MFI at 100 nM in assay [1], in assay [2] and in assay [3] were 2160, 1640 and 1660, respectively.
For the substance “CD155 variant S42G, S52Q, L104E, G111R IgV-Fc (from UniProt P15151 24-139) (Fc fusion)”, the MFI at 100 nM came to 2020 in assay [1], 1710 in assay [2] and 1710 in assay [3].
Take “CD155 variant S42L IgV-Fc (from UniProt P15151 24-139) (Fc fusion)”: the MFI at 100 nM in assay [1] came out at 2190; in assay [2], 1620; in assay [3] it was 1740.
With “CD155 variant S42L, S52L, Q62F, L104Q IgV-Fc (from UniProt P15151 24-139) (Fc fusion)”, the MFI at 100 nM was found to be 2640 in assay [1], 2320 in assay [2] and 1730 in assay [3].
As for “CD155 variant S42L, S52Q, L104E IgV-Fc (from UniProt P15151 24-139) (Fc fusion)”, the MFI at 100 nM is 6470 in assay [1], 1700 in assay [2] and 1750 in assay [3].
In the case of “CD155 variant S42N IgV-Fc (from UniProt P15151 24-139) (Fc fusion)”, the MFI at 100 nM in assay [1] is 1910; in assay [2], 1690; in assay [3], 1700.
Regarding “CD155 variant S42W, S52R, Q62Y, L104Q IgV-Fc (from UniProt P15151 24-139) (Fc fusion)”, the figures for the MFI at 100 nM in assay [1] and in assay [3] were 2300 and 1820, respectively.
On to “CD155 variant S52M IgV-Fc (from UniProt P15151 24-139) (Fc fusion)”, for which the MFI at 100 nM in assay [1] is 1900; in assay [3], 1550.
For “CD155 variant S52W IgV-Fc (from UniProt P15151 24-139) (Fc fusion)”, the MFI at 100 nM in assay [1] turned out to be 2040; in assay [2], 1710.
In the assay with PD-1 (human), “PD-L2 IgV-Fc I13V, H15Q, T47A, Q82R, V89D (SEQ ID NO 1544) (Fc fusion)” showed a Fold increase over wildtype PD-L2 IgV-Fc, MLR IFN gamma of 1.05 fold and an IFN gamma levels pg/mL, MLR of 1450 pg/mL.
Consider “PD-L2 IgV-Fc I13V, H15Q, T47A, Q82R, V89D (SEQ ID NO 1545) (Fc fusion)”, for which, in the assay with PD-1 (human), the Fold increase over wildtype PD-L2 IgV-Fc, MLR IFN gamma came to 1.26 fold and the IFN gamma levels pg/mL, MLR stood at 1740 pg/mL.
For “PD-L2 IgV-Fc I13V, H15Q, T47A, R76G, V89D (Fc fusion)”, in the assay with PD-1 (human), the Fold increase over wildtype PD-L2 IgV-Fc, MLR IFN gamma is 0.91 fold and the IFN gamma levels pg/mL, MLR was determined as 1250 pg/mL.
For “PD-L2 IgV-Fc I13V, H15Q, T47A, S67L, Q72H, R76G, Q82R, V89D (Fc fusion)”, in that order: 1.13 fold and 1560 pg/mL.
Consider “PD-L2 IgV-Fc I13V, H15Q, V31A, N45S, Q82R, V89D (Fc fusion)”, for which, in the assay with PD-1 (human), the Fold increase over wildtype PD-L2 IgV-Fc, MLR IFN gamma amounted to 1.25 fold and the IFN gamma levels pg/mL, MLR came out at 1720 pg/mL.
In the case of “PD-L2 IgV-Fc I13V, H15Q, V89D (Fc fusion)”, in the assay with PD-1 (human), the Fold increase over wildtype PD-L2 IgV-Fc, MLR IFN gamma is 0.82 fold and the IFN gamma levels pg/mL, MLR was determined as 1120 pg/mL.
In the case of “PD-L2 IgV-Fc I13V, Q72H, R76G, I86T (Fc fusion)”, in the assay with PD-1 (human), the Fold increase over wildtype PD-L2 IgV-Fc, MLR IFN gamma was 1.42 fold and the IFN gamma levels pg/mL, MLR came out at 1950 pg/mL.
In the assay with PD-1 (human), “PD-L2 IgV-Fc I13V, S39I, E44D, Q82R, V89D (Fc fusion)” registered a Fold increase over wildtype PD-L2 IgV-Fc, MLR IFN gamma of 0.68 fold and an IFN gamma levels pg/mL, MLR of 936 pg/mL.
In the assay with PD-1 (human), “PD-L2 IgV-Fc I13V, S67L, Q82R, V89D (Fc fusion)” registered a Fold increase over wildtype PD-L2 IgV-Fc, MLR IFN gamma of 1 fold and an IFN gamma levels pg/mL, MLR of 1370 pg/mL.
For “PD-L2 IgV-Fc I13V, S67L, V89D (Fc fusion)”, in the assay with PD-1 (human), the Fold increase over wildtype PD-L2 IgV-Fc, MLR IFN gamma came to 0.63 fold and the IFN gamma levels pg/mL, MLR is 868 pg/mL.
Regarding PD-L2 IgV-Fc N24D (Fc fusion), in the assay with PD-1 (human), the Fold increase over wildtype PD-L2 IgV-Fc, MLR IFN gamma was 1.44 fold and the IFN gamma levels pg/mL, MLR worked out at 1980 pg/mL.
Regarding “PD-L2 IgV-Fc N32D, S67L, V89D (Fc fusion)”, in the assay with PD-1 (human), the Fold increase over wildtype PD-L2 IgV-Fc, MLR IFN gamma was 0.87 fold and the IFN gamma levels pg/mL, MLR was 1190 pg/mL.
In the assay with PD-1 (human), PD-L2 IgV-Fc Q82R, V89D (Fc fusion) came in with a Fold increase over wildtype PD-L2 IgV-Fc, MLR IFN gamma of 1.17 fold and an IFN gamma levels pg/mL, MLR of 1620 pg/mL.
In the assay with PD-1 (human), PD-L2 IgV-Fc S39I, V89D (Fc fusion) came in with a Fold increase over wildtype PD-L2 IgV-Fc, MLR IFN gamma of 0.95 fold and an IFN gamma levels pg/mL, MLR of 1310 pg/mL.
With PD-L2 IgV-Fc S67L, I85F (Fc fusion), in the assay with PD-1 (human), the Fold increase over wildtype PD-L2 IgV-Fc, MLR IFN gamma turned out to be 0.93 fold and the IFN gamma levels pg/mL, MLR stood at 1280 pg/mL.
With PD-L2 IgV-Fc S67L, I86T (Fc fusion), in the assay with PD-1 (human), the Fold increase over wildtype PD-L2 IgV-Fc, MLR IFN gamma was 0.74 fold and the IFN gamma levels pg/mL, MLR stood at 1020 pg/mL.
For PD-L2 IgV-Fc S67L, V89D (Fc fusion), in that order: 0.89 fold and 1230 pg/mL.
As for PD-L2 IgV-Fc V89D (Fc fusion), in the assay with PD-1 (human), the Fold increase over wildtype PD-L2 IgV-Fc, MLR IFN gamma amounted to 0.85 fold and the IFN gamma levels pg/mL, MLR worked out at 1170 pg/mL.
In the assay with PD-1 (human), Wild Type PD-L2 IgV (Fc fusion) came in with an IFN gamma levels pg/mL, MLR of 1380 pg/mL.
Regarding “Wildtype CD155 ECD-Fc (from UniProt P15151 21-343) (Fc fusion)”, the MFI at 100 nM was determined as 99000 in assay [2] and 1780 in assay [3].
